From patent publication US20260234592

System: MBP5-TEV-paramyosin ΔSal (maltose binding protein domain and a paramyosin fragment linked by a TEV protease recognition sequence)

## commercially available TEV protease (New England Biolabs, Inc. Catalog #P8112S)
  cleavage of the substrate, 4° C., 1 hour: the commercially available enzyme only produced 62% cleavage in the same time
  cleavage of the substrate, 4° C., 3 hours: the commercial enzyme cleaved only 76% and 83% of the substrate at these times, respectively
  cleavage of the substrate, 4° C., 5 hours: the commercial enzyme cleaved only 76% and 83% of the substrate at these times, respectively
